For assay [1], the target named is T1, human IFNAR-1 protein (form not stated) (human, UniProt P17181 28-436, limits assumed).
T1 construct: bispecific ELISA
T1 sequence (looked up): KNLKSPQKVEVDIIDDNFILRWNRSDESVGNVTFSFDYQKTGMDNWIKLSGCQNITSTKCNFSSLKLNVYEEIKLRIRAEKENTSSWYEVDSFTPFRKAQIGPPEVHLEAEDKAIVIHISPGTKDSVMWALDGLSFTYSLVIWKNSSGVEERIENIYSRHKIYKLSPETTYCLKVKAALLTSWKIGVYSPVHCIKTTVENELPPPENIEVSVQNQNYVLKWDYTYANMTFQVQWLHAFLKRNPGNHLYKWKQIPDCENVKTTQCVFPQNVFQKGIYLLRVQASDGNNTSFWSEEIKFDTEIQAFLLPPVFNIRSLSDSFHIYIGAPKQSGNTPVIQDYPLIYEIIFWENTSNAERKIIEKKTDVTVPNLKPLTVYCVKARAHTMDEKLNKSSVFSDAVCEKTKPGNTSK
Briefly: affinity measurement of purified IgG at different concentrations (method not named).

The target of assay [2] is T1, human IFNAR-1 protein (form not stated). Briefly: affinity ranking of expressed humanized 485G10 IgGs (method not named).
Assay [3] concerns the target T2, recombinant His-tagged human IFNAR-1-ECD protein (human, UniProt P17181 28-436).
T2 construct: extracellular domain; the Biacore text says His-tagged human IFNAR-1-ECD; also called His-tagged IFNAR-1; hIFNAR-1 protein; not shown: His tag
T2 sequence (looked up): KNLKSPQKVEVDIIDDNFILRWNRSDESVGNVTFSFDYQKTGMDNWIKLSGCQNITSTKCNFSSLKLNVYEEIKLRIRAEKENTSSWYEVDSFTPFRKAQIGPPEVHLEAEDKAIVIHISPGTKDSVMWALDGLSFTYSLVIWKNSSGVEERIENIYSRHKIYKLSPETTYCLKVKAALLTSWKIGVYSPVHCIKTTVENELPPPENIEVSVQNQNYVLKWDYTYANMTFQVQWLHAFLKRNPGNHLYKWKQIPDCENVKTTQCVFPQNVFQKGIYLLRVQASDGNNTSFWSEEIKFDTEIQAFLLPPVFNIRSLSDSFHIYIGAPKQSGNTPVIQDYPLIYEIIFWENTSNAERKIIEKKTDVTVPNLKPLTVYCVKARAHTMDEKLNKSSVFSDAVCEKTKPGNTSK
As to the kind of experiment: ELISA, coated His-tagged IFNAR-1. How it is done:
This example tested the binding properties of the anti-IFNAR-1 mouse antibodies to the human IFNAR-1 proteins by ELISA assay. In short, His-tagged IFNAR-1 was coated at 0.5 μg/ml overnight and then blocked by 5% BSA in PBS. Serial diluted anti-IFNAR-1 antibodies were incubated with the coated antigen for 1 h at room temperature. The resulting plates were washed with PBS/T and incubated with goat anti-mouse IgG-HRP for 1 h at room temperature. The plates were developed with TMB substrate and analyzed by spectrophotometer at OD 450-630 nm.
(In general: ELISA stands for enzyme-linked immunosorbent assay.)

In assay [4] the target is T3, human IFNAR-1 on cells (human, UniProt P17181 28-557).
T3 sequence (looked up): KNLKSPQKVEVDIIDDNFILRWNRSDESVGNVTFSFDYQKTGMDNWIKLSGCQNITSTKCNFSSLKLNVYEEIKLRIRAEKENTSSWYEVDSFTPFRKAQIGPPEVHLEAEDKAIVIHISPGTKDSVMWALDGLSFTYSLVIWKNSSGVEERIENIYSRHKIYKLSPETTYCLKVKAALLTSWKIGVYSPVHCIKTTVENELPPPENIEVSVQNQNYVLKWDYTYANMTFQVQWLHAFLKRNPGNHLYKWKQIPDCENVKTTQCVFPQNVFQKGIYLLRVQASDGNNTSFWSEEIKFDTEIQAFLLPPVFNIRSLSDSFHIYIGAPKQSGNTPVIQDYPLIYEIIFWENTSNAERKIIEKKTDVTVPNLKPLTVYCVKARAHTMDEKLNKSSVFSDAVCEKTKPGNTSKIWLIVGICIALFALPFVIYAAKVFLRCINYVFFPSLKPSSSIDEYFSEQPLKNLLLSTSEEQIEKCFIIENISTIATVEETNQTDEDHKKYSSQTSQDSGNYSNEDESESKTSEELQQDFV
Briefly: cell-based or functional assay.

Assay [5] deals with T2, recombinant His-tagged human …. Briefly: SPR (Biacore T200), antibody captured, His-tagged IFNAR-1-ECD as analyte. How it is done: The binding of the antibodies to recombinant His-tagged human IFNAR-1-ECD protein was examined by Biacore T200 using a capture method. The anti-IFNAR-1 antibodies were captured using anti-human Fc antibody or Protein A which were coated on chip. The serial concentrations of his-tagged human IFNAR-1-ECD protein (0-8 nM) were injected over capture antibodies at the flow rate of 30 μl/min. The dissociation phases were 600 s or 1200 s.
(Surface plasmon resonance follows binding to a sensor surface in real time, without labels.)

Assay [6] addresses T3, human IFNAR-1 on cells. Briefly: cell-based or functional assay. This is another data set of the same source.
Assay [7] has as its target T1, human IFNAR-1 protein (form not stated). Briefly: affinity measurement of purified IgG at different concentrations (method not named). This is another data set of the same source.
Assay [8] has the same target. As to the kind of experiment: affinity ranking of expressed humanized 8G11 IgGs (method not named).

Consider nine molecules from US20200399381A1 (I MAB BIOPHARMA US, published 2020).

B1: 485G10-H2L3 (antibody, V domains shown)
VH: QVQLVQSGAEVKKPGASVKLSCKASGFNIKDYYIHWVKQAPGQGLEWIGRIDPEDAETKYAPKFQGRVTMTADTSISTAYMELSRLRSDDTVVYYCGRYHGYWALDYWGQGTLVTVSS
VL: DIQMTQSPSSLSTSVGDRVTITCKTSQNVGTNVAWYQQKPGKAPKPLIYSTSYRYSGVPSRFSGSGSGTDFTLTISSVQPEDFATYYCHQYFSYPYTFGPGTKLDIK
notes: Humanized IgG expressed in HEK293; also called VH2 + VL3 (485G10)
The Kd is the concentration at which binding is half-saturated. As a reminder, the koff is a measure of how fast the partners let go of each other. Broadly, the kon is a measure of how fast the partners come together. In assay [1], B1 showed a Kd of 1.96 nM, a koff of 0.000366 s⁻¹ and a kon of 186000 M⁻¹ s⁻¹. For the same molecule, in assay [2], the Kd worked out at 0.848 nM, the off-rate constant (koff) amounted to 0.000238 s⁻¹ and the kon was found to be 281000 M⁻¹ s⁻¹.

B2: 4D8 (antibody, V domains shown)
VH: EVRLQQSGAELVQPGASVKLSCTGFGFNIKDYYMHWVKQRTEQGLEWIGRIDPEDAETKYAPKFQGQATITADTSSNTAYVQVSSLSSEDTAVYYCARGGNFYVMDYWGQGTSVTVSS
VL: DIVMTQSQKFMSTSVGDRVSVTCKASQNVGTNVVWYQQKPGQSPKVLIYSASYRYSGVPDRFTGSGSGTDFTLIISNVQSEDLAEYFCQQKNSYPYTFGGGTKLEIK
notes: Hybridoma-derived monoclonal antibody; Chimeric human IgG1 Fc versions were also made
As usually defined, the EC50 is the concentration that produces a half-maximal response. Regarding B2, the EC50 in assay [3] was 0.067 nM. The “EC50 (nM), inhibition of IFNα2b-induced SEAP reporter in HEK-Blue IFNα/β cells” value (“EC50 (nM), inhibition” for short) with human IFNAR-1 on cells [4] is 0.46 nM. Besides, in assay [5], the Kd turned out to be 0.039 nM, the koff was 9.03e-05 s⁻¹ and the kon came out at 2.31e+06 M⁻¹ s⁻¹.

B3: 485G10 chimeric antibody (antibody, V domains shown)
VH: EVQLQQSGAELVKPGASVKLSCTGSGFNIKDYYIHWVKQRTEQGLEWIGRIDPEDGETKYAPKFQGKATITADTSSNTAYLQLSSLTSEDTVVYYCGRYHGYWALDYWGQGTSVTVSS
VL: DIVMTQSQKFMSTSVGDRVSVTCKTSQNVGTNVAWYQQKPGQSPKPLIYSTSYRYSGVPDRFTGSGSGTDFTLIISNVQSEDLAEYFCHQYFSYPYTFGGGTLLEIK
For B3, the “EC50 (nM), IFNα2b-mediated anti-viral assay (Huh7-Con1b HCV replicon luciferase)” value in the assay with human IFNAR-1 on cells [6] is 16.3 nM.

B4: 34H8 (antibody, V domains shown)
VH: EVQLLQSGAELVKPGASVRLSCTASGFNIKDYYLHWVKQRTEQGLEWIGRIDPEDGETKYAPKFQGKATITTDTSSNTAYLQLSSLTSEDTAVYYCTRGGNYDVMDYWGQGTSVTVSS
VL: DIVMTQSQKFMSTSVGDRVSVTCKASQNVGTYVVWYQQKPGQSPKALIYSASYRYSGVPDRFTGSGSGTDFTLTIGNVQSEDLAEYFCQQKNTYPFTFGGGTKLEIE
notes: Hybridoma-derived monoclonal antibody
B4: the EC50 in assay [3] is 0.064 nM. The “EC50 (nM), inhibition” value with human IFNAR-1 on cells [4] was 0.56 nM. Moreover, in assay [5], the Kd amounted to 0.0186 nM, the koff came to 4.41e-05 s⁻¹ and the on-rate (kon) came out at 2.37e+06 M⁻¹ s⁻¹.

B5: 8G11 (antibody, V domains shown)
VH: EVQLQQSGAELVKPGASVKLSCTGFGFNIKDYYMHWVKQRAEQGLEWIGRIDPEDGETKYAPKFQGKATITADTSSNTAYLQVSSLTSEDTAVYYCARGGNFYVMDYWGQGTSVTVSS
VL: DIVMTQSQKFMSTSVGDRVSVTCKASQNVGTNVVWYQQKPGQSPKVLIYSASYRVSGVPDRFTGSGSGTDFTLIISNVQSEDLAEYFCQQKNNYPYTFGGGTKLEIK
notes: Hybridoma-derived monoclonal antibody; also called mouse antibody 8G11
Consider B5, for which, in assay [3], the EC50 came out at 0.069 nM. Also, in the assay with human IFNAR-1 on cells [4], the “EC50 (nM), inhibition” value is 0.465 nM. Further, in assay [5], the dissociation constant Kd was determined as 0.0271 nM, the koff worked out at 6.4e-05 s⁻¹ and the association rate constant (kon) was 2.36e+06 M⁻¹ s⁻¹.

B6: 8G11-H2L1 (antibody, V domains shown)
VH: QVQLVQSGAEVVKPGASVKVSCKGSGFNIKDYYMHWVRQAPGQGLEWIGRIDPEDAETKYAPKFQGRVTMTADTSTSTVYMELSSLRSEDTAVYYCARGGNFYVMDYWGQGTLVTVSS
VL: DIQLTQSPSFLSASVGDRVTITCKASQNVGTNVVWYQQKPGKAPKLLIYSASYRVSGVPSRFSGSGSGTEFTLTISSLQPEDFATYYCQQKNNYPYTFGQGTKLEIK
notes: Humanized IgG expressed in HEK293; also called VH2 + VL1 (8G11)
Turning to B6, in assay [7], the Kd worked out at 0.403 nM, the koff was 9.24e-05 s⁻¹ and the kon came out at 229000 M⁻¹ s⁻¹. In assay [8], this molecule yielded a dissociation constant (Kd) of 0.439 nM, a koff of 8.84e-05 s⁻¹ and a kon of 202000 M⁻¹ s⁻¹.

B7: 8G11-H1L1 (antibody, V domains shown)
VH: QVQLVQSGAEVKKPGASVKVSCKASGFNIKDYYMHWVRQAPGQGLEWMGRIDPEDAETKYAPKFQGRVTMTRDTSTSTVYMELSSLRSEDTAVYYCARGGNFYVMDYWGQGTLVTVSS
VL: DIQLTQSPSFLSASVGDRVTITCKASQNVGTNVVWYQQKPGKAPKLLIYSASYRVSGVPSRFSGSGSGTEFTLTISSLQPEDFATYYCQQKNNYPYTFGQGTKLEIK
notes: Humanized IgG expressed in HEK293; also called VH1 + VL1 (8G11)
Take B7: in assay [7], the Kd worked out at 1.36 nM, the koff stood at 0.000219 s⁻¹ and the kon came to 161000 M⁻¹ s⁻¹. For the same molecule, in assay [8], the dissociation constant (Kd) stood at 0.662 nM, the koff was 9.83e-05 s⁻¹ and the kon was 148000 M⁻¹ s⁻¹.

B8: 8G11-H4L3 (antibody, V domains shown)
VH: QVQLVQSGAEVVKPGASVKLSCKGSGFNIKDYYMHWVKQAPGQGLEWIGRIDPEDAETKYAPKFQGRATITADTSTSTAYLELSSLRSEDTAVYYCARGGNFYVMDYWGQGTLVTVSS
VL: DIQLTQSPSFLSTSVGDRVTITCKASQNVGTNVVWYQQKPGKSPKVLIYSASYRVSGVPSRFSGSGSGTEFTLIISSVQPEDFATYFCQQKNNYPYTFGQGTKLEIK
notes: Humanized IgG expressed in HEK293; also called VH4 + VL3 (8G11)
As for B8, in assay [7], the Kd came to 0.22 nM, the koff is 7.47e-05 s⁻¹ and the kon is 340000 M⁻¹ s⁻¹. In assay [8], this molecule registered an equilibrium dissociation constant (Kd) of 0.284 nM, a koff of 8.52e-05 s⁻¹ and a kon of 301000 M⁻¹ s⁻¹.

B9: 8G11-H2L2 (antibody, V domains shown)
VH: QVQLVQSGAEVVKPGASVKVSCKGSGFNIKDYYMHWVRQAPGQGLEWIGRIDPEDAETKYAPKFQGRVTMTADTSTSTVYMELSSLRSEDTAVYYCARGGNFYVMDYWGQGTLVTVSS
VL: DIQLTQSPSFLSTSVGDRVTITCKASQNVGTNVVWYQQKPGKSPKVLIYSASYRVSGVPSRFSGSGSGTEFTLIISSLQPEDFATYYCQQKNNYPYTFGQGTKLEIK
notes: Humanized IgG expressed in HEK293; also called VH2 + VL2 (8G11)
Consider B9, for which, in assay [7], binding was characterised by a dissociation constant (Kd) of 0.419 nM, the off-rate (koff) was 0.000125 s⁻¹ and the on-rate (kon) turned out to be 298000 M⁻¹ s⁻¹. Moreover, in assay [8], the affinity, expressed as Kd, was 0.328 nM; the off-rate constant (koff) turned out to be 9.42e-05 s⁻¹; the kon came to 287000 M⁻¹ s⁻¹.
